# Test results from patent US12618050B2, “Engineered polypeptides that exhibit increased catalytic efficiency for unnatural cofactors and uses thereof” (The Regents of the University of California, priority 2018, dated 2026).
# Changes are numbered by the printed parent chain. Names may count otherwise. “Also recorded” adds a separate entry of the source.
# B1: I195R: Bs GDH, same sequence as SEQ ID NO:1 except I195R (SEQ ID NO:2) (protein)
# chain: MYPDLKGKVVAITGAASGLGKAMAIRFGKEQAKVVINYYSNKQDPNEVKEEVIKAGGEAVVVQGDVTKEEDVKNIVQTAIKEFGTLDIMINNAGLENPVPSHEMPLKDWDKVIGTNLTGAFLGSREAIKYFVENDIKGNVINMSSVHEVIPWPLFVHYAASKGGIKLMTETLALEYAPKGIRVNNIGPGAINTPRNAEKFADPKQKADVESMIPMGYIGEPEEIAAVAAWLASKEASYVTGITLFADGGMTQYPSFQAGRG
# modifications: I195R mutant GDH coding sequence
# B2: A93K-Y39Q: Bs GDH variant A93K-Y39Q (protein)
# chain: B1 chain with Y39Q, A93K, R195I
# B3: I195R-A93K: Bs GDH variant I195R A93K (protein)
# chain: B1 chain with A93K
# B4: N92V (protein)
# chain: B1 chain with N92V, R195I
# B5: M143T (protein)
# chain: B1 chain with M143T, R195I
# B6: M143S (protein)
# chain: B1 chain with M143S, R195I
# B7: Y39Q: Bs GDH with Y39Q substitution (SEQ ID NO:4) (protein)
# chain: B1 chain with Y39Q, R195I
# modifications: Y39Q mutant GDH coding sequence
# B8: S17Q-P194N (protein)
# chain: B1 chain with S17Q, P194N, R195I
# B9: N92A (protein)
# chain: B1 chain with N92A, R195I
# B10: I195R-Y39Q: Bs GDH variant I195R Y39Q (protein)
# chain: B1 chain with Y39Q
# B11: I195R-A93K-Y39Q-S17E: Bs GDH with I195R, A93K, Y39Q, S17E substitutions (SEQ ID NO:7) (protein)
# chain: B1 chain with S17E, Y39Q, A93K
# modifications: I195R A93K Y39Q S17E mutant GDH coding sequence
# B12: G94S (protein)
# chain: B1 chain with G94S, R195I
# B13: L19H-I191S (protein)
# chain: B1 chain with L19H, I191S, R195I
# B14: I195T (protein)
# chain: B1 chain with R195T
# B15: A93K: Bs GDH with A93K substitution (SEQ ID NO:3) (protein)
# chain: B1 chain with A93K, R195I
# modifications: A93K mutant GDH coding sequence
# B16: M143G-L19G-I224R (protein)
# chain: B1 chain with L19G, M143G, R195I, I224R
# B17: I195S (protein)
# chain: B1 chain with R195S
# How the values were obtained:
# [1] = GDH enzymatic assay with NAD^+ as cofactor; format: biochemical; conditions: for Kcat / Km: cofactor NAD^+
# Experimental: (§1) GDH enzymatic assays. The GDH activity was measured as described in Hilt et al. (Biochimica et biophysica acta 1076(2):298-304 (1991)). The reactions were started by adding the purified protein to the assay mixture containing 35 mM Tris-HCl buffer (pH 8.0), 3 mM NAD^+, NADP^+ or NMN^+ and 140 mM glucose. The absorbance variation at 340 nm was detected by a spectrophotometer at 25° C.
# [2] = Protein expression levels of GDH variants; set-up: species or system Escherichia coli; conditions: expressed in E. coli
# Experimental: Proteins were purified as 6×His tag fusion at the N-terminus. E. coli BL21 (DE3) with plasmids were inoculated into LB medium with 200 mg L^−1 ampicillin. Cells were induced with 0.5 mM IPTG and expressed for 24 hours at 30° C. with shaking at 250 rpm. BM3 cytochrome P450 was extracted with the EMD Millipore™ BugBuste Plus Lysonase Kit and purified using the HisPur™ Ni-NTA Superflow Purification System according to the manufacturer's instructions. Other proteins were purified using His-Spin Protein Miniprep kit (Zymo Research Corporation, CA). The purified proteins were quantified by Bradford assay.
# [3] = GDH enzymatic assay with NMN^+ as cofactor; format: biochemical; conditions: for Kcat / Km: cofactor NMN^+; for impact of mutation on activity towards NMN^+: without I195R
# Experimental: as §1
# [4] = GDH enzymatic assay with NADP^+ as cofactor; format: biochemical; conditions: for Kcat / Km: cofactor NADP^+
# Experimental: as §1
# [5] = XenA-GDH coupled cycling biotransformation of ketoisophorone to levodione; format: biochemical
# Experimental: Coupled enzymatic biotransformation. All biotransformation reactions were performed in buffer A at 30° C. for 24 hours. Reaction buffer A, modified from that disclosed in Chaparro-Riggers et al., Advanced Synthesis & Catalysis 349(8-9):1521-1531 (2007)), contained 200 mM potassium phosphate buffer (pH 7.5), 1 M NaCl, 300 mM D-glucose, 6 mM NMN^+ (or NADP^+ as the positive control), and substrates. All assays were performed in triplicate, with no proteins or no cofactors added as negative controls. The protein loading for GDH variants was kept at 0.33 mg mL^−1 or 11.7 μM. The various enzymes for biotransformation reactions were added at the concentration of 0.75 mg mL^−1.
# For XenA-GDH coupled cycling assays, the substrates ketoisophorone, citral, or trans-2-hexen-1-al were added at 33 mM, 10 mM, or 50 mM, respectively. For the OYE3-GDH coupled cycling assays, the substrate 4-phenyl-3-butyn-2-one was added at 5 mM. At various time points over 24 hours, 100 μL samples were taken and extracted with 100 μL ethyl acetate. Conversion was determined via GC-FID with octanol as an internal standard (see below). For NfsB-GDH coupled cycling assays, 2 mM nitrofurazone was used as the substrate. Nitrofurazone conversion was measured spectroscopically at 400 nm and quantification was performed using a standard curve. The initial levels of the above-mentioned substrates were mainly determined by their solubility in the assay buffer. For BM3-GDH coupled cycling assays, 50 μM cytochrome c (C2506 Sigma) was used as the substrate. The reduction of cytochrome c was measured spectroscopically at 550 nm. and the quantification was performed using extinction coefficient ε550 of 21.1 mM^−1 cm^−1.
# Coupled cycling conditions: All biotransformation reactions were performed in buffer A at 30° C. for 24 hours. Reaction buffer A contained 200 mM potassium phosphate buffer (pH 7.5), 1 M NaCl, 300 mM D-glucose, 6 mM NMN^+. Substrate ketoisophorone was added at 5 g/L. At various time points over 24 hours, 100 μL samples were taken and extracted with 100 μL ethyl acetate. Conversion was determined via GC-FID with octanol as an internal standard (see below).
# [6] = system: E. coli strain MX103; test: E. coli growth with NMN^+-dependent glycolysis; format: cell-based, Escherichia coli
# [7] = system: E. coli whole cells; test: NMN^+-dependent whole-cell biotransformation of KIP; format: cell-based, Escherichia coli
# Experimental: NMN^+-dependent whole-cell biotransformation. One biotransformation plasmid expressing XenA, LVR, or ADH with a GDH (selected from pLZ217-pLZ225) and pSM104 containing the glucose transport facilitator were transformed into strain MX102 by electroporation. 4 mL seed cultures of 2×YT media with appropriate antibiotics, 0.1 mM IPTG, and 0.2% (wt/v) glucose were cultured at 30° C. while shaking at 250 rpm for 16 hours. 0.5% (v/v) seed cultures were used to inoculate 150 mL of 2×YT media with appropriate antibiotics, A5 trace metals with cobalt, and 0.5 mM IPTG in a 250 mL baffled shake flask and cultured at 30° C. at 250 rpm. When an OD600˜0.4 was reached, protein expression was induced with 0.1% (w/v) arabinose and cultured for an additional 8 hours at 30° C. while shaking at 250 rpm. Cells were harvested by centrifugation for 15 minutes at 20° C. at 3750 rpm. The supernatant was discarded. Nutrients from the media were removed by washing the pelleted cells 3 times with 50 mL of 100 mM potassium phosphate at pH 7.5. Cells were resuspended to an OD600 of 100 in assay buffer consisting of 100 mM potassium phosphate buffer at pH 7.5, 200 mM D-glucose, 0.5% arabinose, and 0.5 mM IPTG. 1 mL of resuspended cells were added to 20 mL of identical assay buffer in a 250 mL unbaffled, screw-cap shake flask. KIP was spiked into the flask to 5 g/L to initiate the reaction. Flask caps were secured tightly to prevent evaporative loss of substrate or products. Flasks were incubated at 30° C. while shaking at 250 rpm for 48 hours. After 48 hours, 1 mL of culture was pelleted, and the supernatant was used for analysis. 200 μL of supernatant was extracted with an equal volume of ethyl acetate containing 200 mg/L octanol as an internal standard, and the samples were analyzed by gas chromatography. For samples expressing all three conversion enzymes (XenA, LVR, and ADH) on the same vector (pLZ226), the Bs GDH was expressed individually on a separate vector (pSM106, pSM107, or pSM108). The Zm glf gene was also expressed in the system (pSM110).
# [8] = specific activity towards NMN^+
molecule,measurement,setting,value
B1,Kcat,[1],7.3 ± 1.1 s⁻¹
same,Km,[1],0.053 ± 0.0092 mM
same,Expression level,[2],108.83 μg protein/ml culture
same,Kcat,[3],1.1 ± 0.27 s⁻¹
same,Km,[3],8.9 ± 0.69 mM
same,improvement of specific activity towards NMN^+,[3]; versus wild-type Bs GDH,545 fold
same,Kcat,[4],2.5 ± 0.21 s⁻¹
same,Km,[4],0.016 ± 0.0008 mM
same,initial productivity of levodione,"[5]; NMN^+ as cycling cofactor, XenA in excess, GDH 11.7 μM",~0.51 µM/s
same,improvement of NMN^+-dependent productivity,[5]; versus wild type Bs GDH,10 fold
B2,impact of mutation on activity towards NMN^+,[3],lack of impact on activity
B3,Expression level,[2],11.17 μg protein/ml culture
same,lower activity than GDH Triple,[3]; [8],9 fold
B4,Expression level,[2],57.56 μg protein/ml culture
B5,Expression level,[2],94.55 μg protein/ml culture
B6,Expression level,[2],40.60 μg protein/ml culture
B7,impact of mutation on activity towards NMN^+,[3],lack of impact on activity
B8,Expression level,[2],117.63 μg protein/ml culture
B9,Expression level,[2],81.16 μg protein/ml culture
B10,Expression level,[2],57.60 μg protein/ml culture
same,lower activity than GDH Triple,[3]; [8],14 fold
same,slower than I195R,[3]; [8],2.4 fold
B11,Kcat,[1],0.025 ± 0.002 s⁻¹
same,Km,[1],6.5 mM
same,drop of catalytic efficiency for NAD^+ upon introducing S17E,[1]; compared with GDH Triple,220 fold
same,change of NMN^+-dependent catalytic efficiency compared with GDH Triple,[3],modest reduction
same,Kcat,[3],1.21 ± 0.09 s⁻¹
same,Km,[3],5.9 ± 1 mM
same,overall specificity switch towards NMN^+ from NADP^+,[3]; compared to wild type,~1×10^7 fold
same,overall specificity switch towards NMN^+ from NAD^+,[3]; compared to wild type,~2×10^7 fold
same,Kcat,[4],0.022 ± 0.013 s⁻¹
same,Km,[4],2 mM
same,drop of catalytic efficiency for NADP^+ upon introducing S17E,[4]; compared with GDH Triple,890 fold
same,cell growth on glucose,"[6]; minimal glucose medium, GDH without XenA",did not grow
same,cell growth on glucose,"[6]; minimal medium, glucose sole carbon source, GDH with XenA, listed as GDH Ortho",able to grow; also recorded: supported E. coli growth on glucose
same,levodione fraction of total products by mass,"[7]; XenA, LVR and ADH over-expressed simultaneously",~92%
same,LVR- and ADH-catalyzed formation of phorenol or HIP,[7]; resting cells with LVR or ADH,minimal levels of phorenol or HIP
same,levodione produced,"[7]; resting cells with XenA, 5 g/L KIP, glucose co-substrate",~1 g/L
B12,Expression level,[2],117.50 μg protein/ml culture
B13,Expression level,[2],No expression (<1) μg protein/ml culture
B14,Expression level,[2],105.51 μg protein/ml culture
B15,impact of mutation on activity towards NMN^+,[3],lack of impact on activity
B16,Expression level,[2],No expression (<1) μg protein/ml culture
B17,Expression level,[2],96.33 μg protein/ml culture
